The record followed here is US20240317868A1 (Boehringer Ingelheim, published 2024).

In the assay the target is T1, human IL1RAP (human, UniProt Q9NPH3 21-367, limits assumed, biotinylated in the ELISA screens (site not stated)).
T1 construct: also called huIL1RAP; IL1RAP antigen
T1 sequence (looked up): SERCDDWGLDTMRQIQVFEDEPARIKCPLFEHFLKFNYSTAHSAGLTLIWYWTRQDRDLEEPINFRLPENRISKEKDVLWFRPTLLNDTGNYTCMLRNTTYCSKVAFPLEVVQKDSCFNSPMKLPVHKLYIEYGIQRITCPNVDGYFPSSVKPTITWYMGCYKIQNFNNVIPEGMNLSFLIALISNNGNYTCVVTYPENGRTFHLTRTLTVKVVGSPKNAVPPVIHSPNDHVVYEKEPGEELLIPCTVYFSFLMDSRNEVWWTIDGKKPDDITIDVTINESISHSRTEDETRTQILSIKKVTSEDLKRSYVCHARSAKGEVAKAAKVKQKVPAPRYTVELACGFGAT
Briefly: ELISA of point mutant IgG (heavy chain mutant with the parental chimeric light chain, CHO-E expression), one bar each, concentration not given. The source says:
For light chain 13 variants (T25A, E27Q, N28S, N30S, Y50A, K52S, T53Y, A55Q, E56S, H90Q, H91S, G93S and S95P) and 19 heavy chain variants (Y27G, I28T, L30S, T31S, W33Y, M34I, N35S, Q50R, F521, A541, S55L, D56G, S57I, T58A, N61A, E62Q, M63K, K65Q and D66G) were generated separately in the vector pTT5 (See FIG. 3A/B). The light chain mutants were paired with the parental chimeric heavy chain and heavy chain mutants were paired with parental chimeric light chain for expression analysis in CHO-E cells for 7 days. The resulting variants were evaluated for binding in ELISA experiments and compared to the parental chimeric IgG which has mouse variable region but human constant regions. For light chain variants, six point mutants VK-T25A, E27Q, N28S, N30S, K52S and T53Y depicted binding similar to chimeric IgG (+10% control; FIG. 3A) while for heavy chain […] point mutants VH-I28T, L30S, M34I, N35S, D56G, T58A, N61A, E62Q, M63K, K65Q and D66G depicted similar binding as chimeric IgG (+10% control; FIG. 3B).
A general note: ELISA stands for enzyme-linked immunosorbent assay.

B1: GO11 chimeric IgG, heavy chain point mutant VH-D56G (antibody, V domains shown)
VH: QVHLQQSGPELVRPGTSVKISCEASGYIFLTYWMNWVKQRPGQGLEWIGQIFPASGSTYYNEMFKDKARFTVDKSSSTAYMQFSSLTSEDTAVYFCARSGPYSYYAGGYALDYWGQGTSVTVSS
VL: DIQMTQSPASLSASVGETVTITCRTSENINSYLAWYQQKQGKSPQLLVHYAKTLAEGVPSRFSGSGSGTQFSLKINSLKPEDFGSYYCQHHYGTSLTFGAGTKLELK
notes: Heavy chain mutant paired with the parental chimeric light chain; IgG backbone, expressed in CHO-E
B1: the binding result was “binds”.

B2: VH-Y27G (antibody, V domains shown)
VH: QVHLQQSGPELVRPGTSVKISCEASGGIFLTYWMNWVKQRPGQGLEWIGQIFPASDSTYYNEMFKDKARFTVDKSSSTAYMQFSSLTSEDTAVYFCARSGPYSYYAGGYALDYWGQGTSVTVSS
VL: DIQMTQSPASLSASVGETVTITCRTSENINSYLAWYQQKQGKSPQLLVHYAKTLAEGVPSRFSGSGSGTQFSLKINSLKPEDFGSYYCQHHYGTSLTFGAGTKLELKR
notes: germlining point mutant, paired with the parental chimeric light chain; also called GO11 chimeric IgG, heavy chain point mutant Y27G; copies: 2 + 2
For the molecule B2, the binding result is listed as “binds”.

B3: GO11 chimeric IgG, heavy chain point mutant VH-K65Q (antibody, V domains shown)
VH: QVHLQQSGPELVRPGTSVKISCEASGYIFLTYWMNWVKQRPGQGLEWIGQIFPASDSTYYNEMFQDKARFTVDKSSSTAYMQFSSLTSEDTAVYFCARSGPYSYYAGGYALDYWGQGTSVTVSS
VL: DIQMTQSPASLSASVGETVTITCRTSENINSYLAWYQQKQGKSPQLLVHYAKTLAEGVPSRFSGSGSGTQFSLKINSLKPEDFGSYYCQHHYGTSLTFGAGTKLELK
notes: as for B1
Consider B3, for which the binding result is listed as “binds”.

B4: GO11 chimeric IgG, heavy chain point mutant VH-T58A (antibody, V domains shown)
VH: QVHLQQSGPELVRPGTSVKISCEASGYIFLTYWMNWVKQRPGQGLEWIGQIFPASDSAYYNEMFKDKARFTVDKSSSTAYMQFSSLTSEDTAVYFCARSGPYSYYAGGYALDYWGQGTSVTVSS
VL: DIQMTQSPASLSASVGETVTITCRTSENINSYLAWYQQKQGKSPQLLVHYAKTLAEGVPSRFSGSGSGTQFSLKINSLKPEDFGSYYCQHHYGTSLTFGAGTKLELK
notes: as for B1
On to B4, for which the binding result is reported as “binds”.

B5: GO11 chimeric IgG, heavy chain point mutant VH-L30S (antibody, V domains shown)
VH: QVHLQQSGPELVRPGTSVKISCEASGYIFSTYWMNWVKQRPGQGLEWIGQIFPASDSTYYNEMFKDKARFTVDKSSSTAYMQFSSLTSEDTAVYFCARSGPYSYYAGGYALDYWGQGTSVTVSS
VL: DIQMTQSPASLSASVGETVTITCRTSENINSYLAWYQQKQGKSPQLLVHYAKTLAEGVPSRFSGSGSGTQFSLKINSLKPEDFGSYYCQHHYGTSLTFGAGTKLELK
notes: as for B1
As for B5, the binding result is “binds”.

B6: VH-S57I (antibody, V domains shown)
VH: QVHLQQSGPELVRPGTSVKISCEASGYIFLTYWMNWVKQRPGQGLEWIGQIFPASDITYYNEMFKDKARFTVDKSSSTAYMQFSSLTSEDTAVYFCARSGPYSYYAGGYALDYWGQGTSVTVSS
VL: DIQMTQSPASLSASVGETVTITCRTSENINSYLAWYQQKQGKSPQLLVHYAKTLAEGVPSRFSGSGSGTQFSLKINSLKPEDFGSYYCQHHYGTSLTFGAGTKLELKR
notes: germlining point mutant, paired with the parental chimeric light chain; also called GO11 chimeric IgG, heavy chain point mutant S57I; copies: 2 + 2
On to B6, for which the binding result is “binds”.

B7: GO11 chimeric IgG, heavy chain point mutant VH-E62Q (antibody, V domains shown)
VH: QVHLQQSGPELVRPGTSVKISCEASGYIFLTYWMNWVKQRPGQGLEWIGQIFPASDSTYYNQMFKDKARFTVDKSSSTAYMQFSSLTSEDTAVYFCARSGPYSYYAGGYALDYWGQGTSVTVSS
VL: DIQMTQSPASLSASVGETVTITCRTSENINSYLAWYQQKQGKSPQLLVHYAKTLAEGVPSRFSGSGSGTQFSLKINSLKPEDFGSYYCQHHYGTSLTFGAGTKLELK
notes: as for B1
Regarding B7, the binding result was “binds”.

B8: GO11 chimeric IgG, heavy chain point mutant VH-N35S (antibody, V domains shown)
VH: QVHLQQSGPELVRPGTSVKISCEASGYIFLTYWMSWVKQRPGQGLEWIGQIFPASDSTYYNEMFKDKARFTVDKSSSTAYMQFSSLTSEDTAVYFCARSGPYSYYAGGYALDYWGQGTSVTVSS
VL: DIQMTQSPASLSASVGETVTITCRTSENINSYLAWYQQKQGKSPQLLVHYAKTLAEGVPSRFSGSGSGTQFSLKINSLKPEDFGSYYCQHHYGTSLTFGAGTKLELK
notes: as for B1
On to B8, for which the binding result is “binds”.

B9: GO11 chimeric IgG, heavy chain point mutant VH-N61A (antibody, V domains shown)
VH: QVHLQQSGPELVRPGTSVKISCEASGYIFLTYWMNWVKQRPGQGLEWIGQIFPASDSTYYAEMFKDKARFTVDKSSSTAYMQFSSLTSEDTAVYFCARSGPYSYYAGGYALDYWGQGTSVTVSS
VL: DIQMTQSPASLSASVGETVTITCRTSENINSYLAWYQQKQGKSPQLLVHYAKTLAEGVPSRFSGSGSGTQFSLKINSLKPEDFGSYYCQHHYGTSLTFGAGTKLELK
notes: as for B1
With B9, the binding result is “binds”.

B10: VH-S55L (antibody, V domains shown)
VH: QVHLQQSGPELVRPGTSVKISCEASGYIFLTYWMNWVKQRPGQGLEWIGQIFPALDSTYYNEMFKDKARFTVDKSSSTAYMQFSSLTSEDTAVYFCARSGPYSYYAGGYALDYWGQGTSVTVSS
VL: DIQMTQSPASLSASVGETVTITCRTSENINSYLAWYQQKQGKSPQLLVHYAKTLAEGVPSRFSGSGSGTQFSLKINSLKPEDFGSYYCQHHYGTSLTFGAGTKLELKR
notes: germlining point mutant, paired with the parental chimeric light chain; also called GO11 chimeric IgG, heavy chain point mutant S55L; copies: 2 + 2
Regarding B10, the binding result is “no binding”.

B11: VH-W33Y (antibody, V domains shown)
VH: QVHLQQSGPELVRPGTSVKISCEASGYIFLTYYMNWVKQRPGQGLEWIGQIFPASDSTYYNEMFKDKARFTVDKSSSTAYMQFSSLTSEDTAVYFCARSGPYSYYAGGYALDYWGQGTSVTVSS
VL: DIQMTQSPASLSASVGETVTITCRTSENINSYLAWYQQKQGKSPQLLVHYAKTLAEGVPSRFSGSGSGTQFSLKINSLKPEDFGSYYCQHHYGTSLTFGAGTKLELKR
notes: germlining point mutant, paired with the parental chimeric light chain; also called GO11 chimeric IgG, heavy chain point mutant W33Y; copies: 2 + 2
B11: the binding result is on record as “binds”.

B12: VH-Q50R (antibody, V domains shown)
VH: QVHLQQSGPELVRPGTSVKISCEASGYIFLTYWMNWVKQRPGQGLEWIGRIFPASDSTYYNEMFKDKARFTVDKSSSTAYMQFSSLTSEDTAVYFCARSGPYSYYAGGYALDYWGQGTSVTVSS
VL: DIQMTQSPASLSASVGETVTITCRTSENINSYLAWYQQKQGKSPQLLVHYAKTLAEGVPSRFSGSGSGTQFSLKINSLKPEDFGSYYCQHHYGTSLTFGAGTKLELKR
notes: germlining point mutant, paired with the parental chimeric light chain; also called GO11 chimeric IgG, heavy chain point mutant Q50R; copies: 2 + 2
For the molecule B12, the binding result was “binds”.

B13: GO11 chimeric IgG, heavy chain point mutant VH-D66G (antibody, V domains shown)
VH: QVHLQQSGPELVRPGTSVKISCEASGYIFLTYWMNWVKQRPGQGLEWIGQIFPASDSTYYNEMFKGKARFTVDKSSSTAYMQFSSLTSEDTAVYFCARSGPYSYYAGGYALDYWGQGTSVTVSS
VL: DIQMTQSPASLSASVGETVTITCRTSENINSYLAWYQQKQGKSPQLLVHYAKTLAEGVPSRFSGSGSGTQFSLKINSLKPEDFGSYYCQHHYGTSLTFGAGTKLELK
notes: as for B1
Consider B13, for which the binding result was “binds”.

B14: VH-F52I (antibody, V domains shown)
VH: QVHLQQSGPELVRPGTSVKISCEASGYIFLTYWMNWVKQRPGQGLEWIGQIIPASDSTYYNEMFKDKARFTVDKSSSTAYMQFSSLTSEDTAVYFCARSGPYSYYAGGYALDYWGQGTSVTVSS
VL: DIQMTQSPASLSASVGETVTITCRTSENINSYLAWYQQKQGKSPQLLVHYAKTLAEGVPSRFSGSGSGTQFSLKINSLKPEDFGSYYCQHHYGTSLTFGAGTKLELKR
notes: germlining point mutant, paired with the parental chimeric light chain; also called GO11 chimeric IgG, heavy chain point mutant F52I; copies: 2 + 2
For the molecule B14, the binding result is reported as “binds”.

B15: GO11 chimeric IgG, heavy chain point mutant VH-M63K (antibody, V domains shown)
VH: QVHLQQSGPELVRPGTSVKISCEASGYIFLTYWMNWVKQRPGQGLEWIGQIFPASDSTYYNEKFKDKARFTVDKSSSTAYMQFSSLTSEDTAVYFCARSGPYSYYAGGYALDYWGQGTSVTVSS
VL: DIQMTQSPASLSASVGETVTITCRTSENINSYLAWYQQKQGKSPQLLVHYAKTLAEGVPSRFSGSGSGTQFSLKINSLKPEDFGSYYCQHHYGTSLTFGAGTKLELK
notes: as for B1
B15: the binding result was “binds”.

B16: GO11 chimeric IgG, heavy chain point mutant VH-I28T (antibody, V domains shown)
VH: QVHLQQSGPELVRPGTSVKISCEASGYTFLTYWMNWVKQRPGQGLEWIGQIFPASDSTYYNEMFKDKARFTVDKSSSTAYMQFSSLTSEDTAVYFCARSGPYSYYAGGYALDYWGQGTSVTVSS
VL: DIQMTQSPASLSASVGETVTITCRTSENINSYLAWYQQKQGKSPQLLVHYAKTLAEGVPSRFSGSGSGTQFSLKINSLKPEDFGSYYCQHHYGTSLTFGAGTKLELK
notes: as for B1
As for B16, the binding result is “binds”.

B17: GO11 chimeric IgG, heavy chain point mutant VH-M34I (antibody, V domains shown)
VH: QVHLQQSGPELVRPGTSVKISCEASGYIFLTYWINWVKQRPGQGLEWIGQIFPASDSTYYNEMFKDKARFTVDKSSSTAYMQFSSLTSEDTAVYFCARSGPYSYYAGGYALDYWGQGTSVTVSS
VL: DIQMTQSPASLSASVGETVTITCRTSENINSYLAWYQQKQGKSPQLLVHYAKTLAEGVPSRFSGSGSGTQFSLKINSLKPEDFGSYYCQHHYGTSLTFGAGTKLELK
notes: as for B1
As for B17, the binding result was “binds”.
